Experimental data taken from CN115925945A (GUANGDONG FEIPENG PHARMACEUTICAL CO LTD, dated 2023).

Molecular target: T1, 人TIGIT (全长, 表达于CHO工程细胞CHO-hTIGIT) (human, UniProt Q495A1 22-244)
T1 construct: whole, on cells
T1 sequence (looked up): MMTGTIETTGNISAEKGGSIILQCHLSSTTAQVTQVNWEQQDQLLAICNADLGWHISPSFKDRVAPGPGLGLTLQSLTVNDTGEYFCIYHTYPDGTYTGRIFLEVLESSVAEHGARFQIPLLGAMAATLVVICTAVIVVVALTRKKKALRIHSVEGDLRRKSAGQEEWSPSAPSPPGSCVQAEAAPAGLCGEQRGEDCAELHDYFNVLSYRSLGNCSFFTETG
Assay: in vitro binding activity after stress tests (acid, base, freeze-thaw, high temperature)

- binding result: binds
B1: 抗TIGIT人源化抗体15H10L3 (R0774), hIgG1亚型 (antibody, V domains shown)
VH: QVQLVQSGAEVKKPGSSVKVSCKASGYSFTSYWMNWVRQAPGQGLEWIGMIRPSDSETRLNQMFKDRVTITVDKSTSTAYMELSSLRSEDTAVYYCAGIHDYGHGAYWGQGTLVTVSS
VL: DIQMTQSPSSLSASVGDRVTITCRASENIYSNLAWYQQKPGKSPKLLVYAASHLPDGVPSRFSGSGSGTDYSLTISSLQPEDFATYYCQHFWGTPRTFGQGTKLEIKR
notes: Full-length chains printed for R0774 (hIgG1 with K214R/D356E/L358M, human kappa); Humanized from TIGIT-5 murine mAb; also called 15H10L3-hIgG1
